US20240116985A1 (published 2024)
Starred links: 1 amine or outer side, 2 acyl side, 3 side chain; linkers in the order of their positions; H or OH if unused. Positions of bridges follow the written chain, without caps; N, C: chain ends. Non-standard residues stand in square brackets, D forms with d. Primed or numbered codes have the meaning given here. B5(16) = 2-amino-2-(pent-4-en-1-yl)hept-6-enoic acid = 2,2-bis(4-pentenyl)glycine (stitching residue), C=CCCCC(CCCC=C)(N[*:1])C(=O)[*:2]; B5(23) = 2-amino-2-(pent-4-en-1-yl)hept-6-enoic acid (2,2-bis(4-pentenyl)glycine), stitching residue, C=CCCCC(CCCC=C)(N[*:1])C(=O)[*:2]; B5(5) = 2,2-bis(4-pentenyl)glycine, 2-amino-2-(pent-4-en-1-yl)hept-6-enoic acid (stitching residue), C=CCCCC(CCCC=C)(N[*:1])C(=O)[*:2]; B5(9) = 2-amino-2-(pent-4-en-1-yl)hept-6-enoic acid (2,2-bis(4-pentenyl)glycine), C=CCCCC(CCCC=C)(N[*:1])C(=O)[*:2]; B5(19) = 2-amino-2-(pent-4-en-1-yl)hept-6-enoic acid (bis(4-pentenyl)glycine), C=CCCCC(CCCC=C)(N[*:1])C(=O)[*:2]; 23FF = 2,3-difluoro-L-phenylalanine, O=C([C@H](Cc1cccc(F)c1F)N[*:1])[*:2]; Phe(3,5-F2) = N[C@@H](Cc1cc(F)cc(F)c1)C(=O)O; d(βAsp) = O=C(O)[C@@H](CC(=O)[*:2])N[*:1]; Bta = N[C@@H](Cc1csc2ccccc12)C(=O)O; αAllylPro = C=CC[C@@]1(C(=O)O)CCCN1; S8 = C=CCCCCCC[C@](C)(N)C(=O)O

T1: full-length beta-Catenin (Uniprot ID P35222) (Homo sapiens (Human), UniProt P35222 1-781)
T1 construct: also called bCat; B-Catenin
T1 sequence: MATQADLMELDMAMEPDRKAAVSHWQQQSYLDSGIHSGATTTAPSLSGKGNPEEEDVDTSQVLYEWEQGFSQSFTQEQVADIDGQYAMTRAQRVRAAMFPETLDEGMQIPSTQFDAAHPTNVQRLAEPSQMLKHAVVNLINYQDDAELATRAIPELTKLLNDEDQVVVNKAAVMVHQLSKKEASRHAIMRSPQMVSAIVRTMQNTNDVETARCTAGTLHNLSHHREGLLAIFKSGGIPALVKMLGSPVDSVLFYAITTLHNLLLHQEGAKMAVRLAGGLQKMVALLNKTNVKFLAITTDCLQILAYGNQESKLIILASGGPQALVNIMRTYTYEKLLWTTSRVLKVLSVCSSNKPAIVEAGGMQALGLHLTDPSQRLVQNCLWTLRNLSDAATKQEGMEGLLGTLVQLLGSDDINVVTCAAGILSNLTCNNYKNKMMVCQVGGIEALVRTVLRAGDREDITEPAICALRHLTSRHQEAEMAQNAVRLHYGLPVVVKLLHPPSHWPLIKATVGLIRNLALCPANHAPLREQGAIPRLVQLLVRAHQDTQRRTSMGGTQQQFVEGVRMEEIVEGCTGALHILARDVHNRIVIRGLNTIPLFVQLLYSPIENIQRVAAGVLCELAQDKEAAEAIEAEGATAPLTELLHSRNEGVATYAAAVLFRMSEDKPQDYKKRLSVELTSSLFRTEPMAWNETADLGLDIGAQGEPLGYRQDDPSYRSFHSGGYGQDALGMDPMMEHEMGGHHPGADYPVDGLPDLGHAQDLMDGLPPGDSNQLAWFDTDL

T2: full-length beta-Catenin (Uniprot ID P35222) (Homo sapiens (Human), UniProt P35222 1-781)
T2 construct: The assay text says full-length beta-Catenin (Uniprot ID P35222); also called bCat; B-Catenin
T2 sequence: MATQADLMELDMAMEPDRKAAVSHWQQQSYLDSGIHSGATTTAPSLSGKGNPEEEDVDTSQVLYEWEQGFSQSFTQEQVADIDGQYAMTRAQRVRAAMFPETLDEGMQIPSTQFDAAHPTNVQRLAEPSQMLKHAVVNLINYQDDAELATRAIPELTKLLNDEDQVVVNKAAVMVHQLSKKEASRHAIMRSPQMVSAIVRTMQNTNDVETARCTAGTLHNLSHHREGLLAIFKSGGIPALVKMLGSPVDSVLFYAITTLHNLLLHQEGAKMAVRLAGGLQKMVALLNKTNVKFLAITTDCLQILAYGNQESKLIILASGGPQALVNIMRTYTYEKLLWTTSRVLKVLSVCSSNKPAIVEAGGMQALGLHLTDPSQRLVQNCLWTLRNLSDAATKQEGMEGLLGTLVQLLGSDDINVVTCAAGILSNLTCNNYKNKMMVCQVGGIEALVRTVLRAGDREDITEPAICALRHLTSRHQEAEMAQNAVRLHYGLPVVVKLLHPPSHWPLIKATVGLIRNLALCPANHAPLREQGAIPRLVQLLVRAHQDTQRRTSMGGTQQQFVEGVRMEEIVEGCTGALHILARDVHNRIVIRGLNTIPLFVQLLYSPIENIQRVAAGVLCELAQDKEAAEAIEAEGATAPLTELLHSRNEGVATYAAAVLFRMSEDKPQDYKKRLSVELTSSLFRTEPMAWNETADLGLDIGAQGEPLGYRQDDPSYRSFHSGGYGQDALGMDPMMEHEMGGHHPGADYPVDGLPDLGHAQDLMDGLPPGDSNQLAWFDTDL


What follows are binders tested against T1, full-length beta-Catenin (Uniprot ID …) (assay: fluorescence polarization competition; full-length beta-catenin, competitor 5FAM-TCF4(10-53) probe).
Method in brief: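 Readings followed a light-protected 60-minute incubation at 20° C. Each read was done in duplicate. Curves were fit with a 1:1 binding model including hill slope, and stated concentrations are final.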

Binder	IC50
Ac-[αAllylPro]DI[B5(16)]DESAFQ[S8]F[Bta]Q-NH2 (staple 1-4, 4-11, Stapled peptide) [I-652]	72 nM
XDIXDEASFQXFXQ (not fully specified; Ac-PL3-Asp-Ile-B5-Asp-Glu-Ala-Ser-Phe-Gln-S8-Phe-BztA-Gln-NH2; N-terminal acetyl, C-terminal amide; PL3(1), B5(4), S8(11) stapled by olefin metathesis (1-4 and 4-11); BztA at 13, Stapled peptide) [I-661]	45 nM
XDIXDEALFQXFXQ (not fully specified; Ac-PL3-Asp-Ile-B5-Asp-Glu-Ala-Leu-Phe-Gln-S8-Phe-BztA-Gln-NH2; N-terminal acetyl, C-terminal amide; PL3(1), B5(4), S8(11) stapled by olefin metathesis (1-4 and 4-11); BztA at 13, Stapled peptide) [I-658]	546 nM
Ac-[αAllylPro]DI[B5(19)]DEAQFQ[S8]F[Bta]Q-NH2 (staple 1-4, 4-11, Stapled peptide) [I-663]	43 nM
Ac-[αAllylPro]DI[B5(9)]DEAWFQ[S8]F[Bta]Q-NH2 (staple 1-4, 4-11, Stapled peptide) [I-664]	996 nM
Ac-[αAllylPro]DI[B5(19)]DEAFFQ[S8]F[Bta]Q-NH2 (staple 1-4, 4-11, Stapled peptide) [I-660]	544 nM
Ac-[αAllylPro][d(βAsp)]I[B5(9)]DEAAFQ[S8]F[Bta]Q-NH2 (staple 1-4, 4-11, Stapled peptide) [I-669]	451 nM
Ac-[αAllylPro]DI[B5(5)][d(βAsp)]EAAFQ[S8]F[Bta]Q-NH2 (staple 1-4, 4-11, Stapled peptide) [I-674]	5000 nM

These binders were tested against T2, full-length beta-Catenin (Uniprot ID …) (assay: fluorescence polarization competition; full-length beta-catenin with 5FAM-labeled TCF4 (residues 10-53) probe as competitor).
Description: The plate was incubated protected from light for 60 minutes at 20° C. prior to read. Reads were performed on a CLARIOstar plate reader (BMG Labtech) in duplicate, and data were fitted to a 1:1 binding model with hill slope using an in-house script. All provided concentrations are final concentrations.

Binder	IC50
Ac-[αAllylPro]DA[B5(9)]DEAAFV[S8][Phe(3,5-F2)][Bta]Q-NH2 (staple 1-4, 4-11, Stapled peptide; also called Ac-PL3-Asp-Ala-B5-Asp-Glu-Ala-Ala-Phe-Val-S8-35FF-BztA-Gln-NH2) [I-394]	5000 nM
Ac-[αAllylPro]DA[B5(9)]DEAA[23FF]V[S8]F[Bta]Q-NH2 (staple 1-4, 4-11; also: later eluting HPLC isomer, E/Z not assigned, Stapled peptide; also called Ac-PL3-Asp-Ala-B5-Asp-Glu-Ala-Ala-23FF-Val-S8-Phe-BztA-Gln-NH2) [I-391]	1910 nM
Ac-[αAllylPro]DA[B5(9)]DEAA[23FF]V[S8]F[Bta]Q-NH2 (staple 1-4, 4-11; not fully specified; printed as Ac-PL3-Asp-Ala-B5-Asp-Glu-Ala-Ala-23FF-Val-S8-Phe-BztA-Gln-NH2, Stapled peptide; also called Ac-PL3-Asp-Ala-B5-Asp-Glu-Ala-Ala-23FF-Val-S8-Phe-BztA-Gln-NH2) [I-390]	3420 nM
Ac-[αAllylPro]DI[B5(23)]DEAAFQ[S8]F[Bta]Q-NH2 (staple 1-4, 4-11, Stapled peptide; also called Ac-PL3-Asp-Ile-B5-Asp-Glu-Ala-Ala-Phe-Gln-S8-Phe-BztA-Gln-NH2) [I-407]	30 nM
Ac-[αAllylPro]DV[B5(23)]DEAAFQ[S8]F[Bta]Q-NH2 (staple 1-4, 4-11, Stapled peptide; also called Ac-PL3-Asp-Val-B5-Asp-Glu-Ala-Ala-Phe-Gln-S8-Phe-BztA-Gln-NH2) [I-410]	50 nM
Ac-[αAllylPro]DA[B5(9)]DEAAFV[S8][23FF][Bta]Q-NH2 (staple 1-4, 4-11; also: later eluting HPLC isomer, E/Z not assigned, Stapled peptide; also called Ac-PL3-Asp-Ala-B5-Asp-Glu-Ala-Ala-Phe-Val-S8-23FF-BztA-Gln-NH2) [I-389]	5000 nM
